Laboratory results reported in US20170362323A1 (Kyowa Kirin, published 2017).

T1: CD20 on CD20-positive human lymphoma cell lines Raji and ST-486 (human, UniProt P11836 1-297)
T1 construct: whole, on cells
T1 sequence (looked up): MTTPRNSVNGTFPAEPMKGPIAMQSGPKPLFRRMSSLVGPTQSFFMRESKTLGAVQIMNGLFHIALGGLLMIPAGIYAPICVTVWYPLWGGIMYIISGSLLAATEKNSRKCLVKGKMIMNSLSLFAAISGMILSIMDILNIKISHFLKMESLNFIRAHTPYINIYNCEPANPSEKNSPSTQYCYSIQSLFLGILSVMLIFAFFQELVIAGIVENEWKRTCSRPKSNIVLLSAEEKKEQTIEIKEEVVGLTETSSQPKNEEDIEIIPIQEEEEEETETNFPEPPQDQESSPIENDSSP

B1: anti-CD20 IgG1 defucosylated antibody GA101/IgG1 DF (antibody, V domains shown)
VH: QVQLVQSGAEVKKPGSSVKVSCKASGYAFSYSWMNWVRQAPGQGLEWMGRIFPGDGDTDYNGKFKGRVTITADKSTSTAYMELSSLRSEDTAVYYCARNVFDGYWLVYWGQGTLVTVSS
VL: DIVMTQTPLSLPVTPGEPASISCRSSKSLLHSNGITYLYWYLQKPGQSPQLLIYQMSNLVSGVPDRFSGSGSGTDFTLKISRVEAEDVGVYYCAQNLELPYTFGGGTKVEIK
B2: anti-CD20 IgG1 type monovalent antibody GA101/mvG1-2 F (antibody, V domains shown)
VH: B1 VH
VL: DIVMTQTPLSLPVTPGEPASISCRSSKSLLHSNGITYLYWYLQKPGQSPQLLIYQMSNLVSGVPDRFSGSGSGTDFTLKISRVEAEDVGVYYCAQNLELPYTFGGGTKVEIKR
notes: Heterodimer of VH-CH and VL-CL-Fc
B3: anti-CD20 IgG1 type defucosylated monovalent antibody GA101/mvG1-2 DF (antibody, V domains shown)
VH: B1 VH
VL: B2 VL
notes: Same chains as GA101/mvG1-2 F, made in CHO/FUT8KO (no core fucose)

Target: T1, CD20 on CD20-positive human lymphoma …
Assay: flow cytometry competition on Raji cells, competitor GA101_Alx
Excerpt: CD20-positive human lymphoma cell line Raji (JCRB9012) and HER2-positive human breast cancer cell line SK-BR-3 (ATCC: HTB-30) were used to perform flow cytometry.
Further, hIgG1_Alx was used as a negative control. After washing with FACS buffer, a flow cytometer Cytomics FC 500 MPL (Beckman Coulter) was used for measurement.

Binding result, binds:
B1, B2, B3
